Experimental data: patent US20150307576A1, “FGF-10 COMPLEXES” (PERMEON BIOLOGICS, INC., priority 2012, published 2015)
Where a chain is given by its changes, count along the chain named. Names may count otherwise. Read-outs that look alike come from different tables or passages of the source.

Experiments:
[1] = test system: SKOV-3 ovarian cancer cells; experiment: SKOV-3 cell viability, MTS assay; type: cell-based, human; conditions: 100 uM, 4-hour treatment, 3 days of growth
[2] = mouse, in vivo
[3] = mouse, in vivo; remark: listed apart in the source
[4] = Cellular distribution, microautoradiography (MARG); type: in vivo, mice
Procedure: To obtain specific cell-type uptake information in select organs, microautoradiography analysis was performed on selected organs collected at various time points. For microautoradiography analysis (MARG), animals were anesthetized and blood collected, as described above. Tissue samples are trimmed to be approximately 0.5 cm^2, placed into cryosectioning embedding media on a cryosectioning sample holder, and frozen in isopentane that is cooled with liquid nitrogen. Frozen samples were stored in liquid nitrogen until analysis by MARG. For analysis, tissues were cryosectioned at 5 μm under darkroom conditions, and collected onto glass slides that are pre-coated with photographic emulsion (Kodak NTB photographic emulsion). Slides were placed in sealed light-safe slide boxes and allowed to expose the photographic emulsion for 7 days before being developed, fixed and stained with hematoxylin and eosin. All slides were examined for cellular localization using light microscopy.

[5] = Stability following multiple freeze/thaw cycles (protein concentration, analytical SEC); type: physicochemical; conditions: two freeze/thaw cycles
Procedure: The stability of this cell penetrating domain of FGF10 was evaluated following multiple freeze/thaw cycles. To do this, protein concentration measurements and analytical size exclusion chromatography were carried out comparing protein which had undergone zero, one, or two freeze/thaw cycles. […] The study indicated about 75% stability of this protein after two freeze/thaw cycles.
Purified protein was subjected to the indicated number of freeze/thaw cycles (each freeze/thaw cycle consisted of snap-freezing the protein in liquid nitrogen, placing it at −80° C. for a minimum of two hours, and then thawing it on ice) and analyzed by size exclusion chromatography. After each thaw, the protein was subjected to 20,000×g centrifugation to remove any precipitation. The protein concentration of each sample was measured by A280, considering the extinction coefficient (24540) and molecular weight (19.57 kDa). In each case 40 μL of the protein was applied to a Superdex 75 10/300 GL column (GE Healthcare). The column running buffer was the same as the protein storage buffer (20 mM Hepes, pH 7.5, 0.5 M NaCl).

Hela cells = experiment: Cell penetrating activity, anti-myc flow cytometry; type: cell-based; conditions: 1 uM, 20 minutes
Procedure: On the day prior to the assay, 10^6 Hela cells were plated in each well of a 6-well plate and incubated in the 37° C. CO2 incubator overnight. The cells were washed once with PBS and then were replenished with 1 mL of serum-free DEMEM (A) or media containing 1 uM of the FGF10 domain construct FGF10-myc (B, C, and D) and were incubated for 20 minutes in the 37° C. CO2 incubator. The cells were then washed three times with ice-cold PBS. For (C) and (D), cells were treated with 0.25% trypsin/EDTA and washed three times with PBS. The cells in (D) were fixed for 10 minutes with 1 mL 4% formaldehyde and permealized for 5 minutes with 0.2% saponin. Then 10 uL of 0.1 mg/mL FITC labeled chicken polyclonal anti-myc tag antibody (Abcam #1394) was added to all the cells and incubated at 4° C. in the dark for 2 hours. The cells were washed three times with ice cold PBS. Cells in (A) and (B) were detached with 1 mL 10 mM EDTA. Cells were analyzed using a BD Accuri™ C6 flow cytometer.

FGFR2b receptor = FGFR2b receptor (Homo sapiens, UniProt P21802); conditions: relative to unmodified FGF10; cited from earlier work
mitogenic activity [6] = experiment: Mitogenic activity of FGF10 variants; conditions: tetramutant vs native FGF10
mitogenic activity [7] = conditions: relative to wild-type; cited from earlier work
[8] = test system: HepG2, Hela and SW626 cells; experiment: Internalization of p16 fusion proteins, flow cytometry; type: cell-based; conditions: 2 uM, overnight
Procedure: On the day prior to the assay, HepG2 (hepatoma), Hela cells, and 10^6 SW626 cells (ovarian) were plated in each well of a 6-well plate and incubated in the 37° C. CO2 incubator. The cells were washed once with PBS and then were replenished with 2 mL of growth media containing 2 uM of p16, +36GFP-p16 or FGF10-p16 proteins and were incubated overnight in the 37° C. CO2 incubator. The cells were then washed once with PBS and detached with 0.25% trypsin/EDTA. The cells were fixed for 10 minutes with 1 mL 4% formaldehyde and permeabilized for 5 minutes with 0.5 mL 0.4% saponin. Then 2.5 uL of 1 mg/mL FITC labeled chicken polyclonal anti-myc tag antibody (Abcam #1394) was added to all the cells and incubated at 4° C. in the dark for 2 hours, except for cells treated with +36GFP-p16 (GFP itself was used for detection). The cells were washed twice with ice cold PBS and were analyzed using a BD Accuri™ C6 flow cytometer.

[9] = trypsin, fixed and permeabilized

Sequence of FGFR2b receptor (P21802 22-822 isoform P21802-3 limits assumed): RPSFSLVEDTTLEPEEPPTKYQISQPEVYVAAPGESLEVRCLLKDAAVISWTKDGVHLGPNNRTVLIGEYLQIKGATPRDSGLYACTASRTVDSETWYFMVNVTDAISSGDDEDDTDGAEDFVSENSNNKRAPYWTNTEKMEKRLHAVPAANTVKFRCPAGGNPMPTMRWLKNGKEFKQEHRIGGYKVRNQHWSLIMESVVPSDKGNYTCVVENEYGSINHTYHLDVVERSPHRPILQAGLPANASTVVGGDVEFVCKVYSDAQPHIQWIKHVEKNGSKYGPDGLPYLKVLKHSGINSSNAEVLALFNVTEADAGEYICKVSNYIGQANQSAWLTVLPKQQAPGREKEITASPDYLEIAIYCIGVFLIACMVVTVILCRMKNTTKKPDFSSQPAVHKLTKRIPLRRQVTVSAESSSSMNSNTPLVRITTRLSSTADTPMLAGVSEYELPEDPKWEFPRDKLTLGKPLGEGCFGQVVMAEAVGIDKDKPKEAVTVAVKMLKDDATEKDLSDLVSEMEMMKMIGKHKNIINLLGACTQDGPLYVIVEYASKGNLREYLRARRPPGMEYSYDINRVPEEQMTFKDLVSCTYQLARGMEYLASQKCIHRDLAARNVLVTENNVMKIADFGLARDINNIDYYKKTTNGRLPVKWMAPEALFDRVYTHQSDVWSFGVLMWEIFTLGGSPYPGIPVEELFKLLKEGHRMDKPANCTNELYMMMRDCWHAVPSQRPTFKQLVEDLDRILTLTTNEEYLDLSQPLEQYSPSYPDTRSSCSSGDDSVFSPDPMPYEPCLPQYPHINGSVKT

CC(=O)c1c(C)c2cnc(Nc3ccc(N4CCNCC4)cn3)nc2n(C2CCCC2)c1=O [PD-0332991]
inhibition of cell proliferation [1]: complete inhibition of cell proliferation

FGF10
levels of injected protein in liver, spleen, kidney, urinary bladder, adrenal gland, thyroid gland [2]: high levels
partitioning between plasma compartment and blood cell compartment [3]: favor the plasma compartment
cellular distribution in kidney ([4]; kidney MARG): uniformly distributed throughout the kidney
cellular distribution in liver ([4]; liver MARG): uniformly distributed throughout the liver tissue including in hepatocytes
stability after freeze/thaw cycles ([5]; listed as His6-FGF10-myc): 75%
stability after freeze/thaw cycles ([5]; listed as Hisx6-FGF10-Myc): about 75%
cells with protein present on the cell membrane (Hela cells; no trypsin): 98.8%
cells stained positive for FGF10 after trypsin treatment (internalized) (Hela cells; [9]): almost all the cells stained positive

B1: FGF10 E158K/K195A: FGF10 mutant with two substitutions E158K/K195A; domain variant in SEQ ID NO: 8 (protein)
chain: GRHVRSYNHLQGDVRWRKLFSFTKYFLKIEKNGKVSGTKKENCPYSILEITSVEIGVVAVKAINSNYYLAMNKKGKLYGSKEFNNDCKLKERIEKNGYNTYASFNWQHNGRQMYVALNGKGAPRRGQKTRRANTSAHFLPMVVHS
decrease in binding to the FGFR2b receptor (FGFR2b receptor): approximately 4 fold

B2: tetramutant: variant of FGF10 domain with four substitutions at positions 78, 114, 158, 195, SEQ ID NO: 10 (protein)
chain: B1 chain with R15A, T51R, K95A
mitogenic activity (mitogenic activity [6]): reduced mitogenic activity

B3: FGF10 R78A: FGF10 mutant with one substitution R78A; domain variant in SEQ ID NO: 9 (protein)
chain: B1 chain with R15A, K95E, A132K
decrease in binding to the FGFR2b receptor (FGFR2b receptor): approximately 4 fold
mitogenic activity (mitogenic activity [7]): significant decrease

B4: FGF10-p16: fusion protein of FGF10 domain and full length human p16, SEQ ID NO: 6 (protein)
chain: MEQKLISEEDLGSGRHVRSYNHLQGDVRWRKLFSFTKYFLKIEKNGKVSGTKKENCPYSILEITSVEIGVVAVKAINSNYYLAMNKKGKLYGSKEFNNDCKLKERIEENGYNTYASFNWQHNGRQMYVALNGKGAPRRGQKTRRKNTSAHFLPMVVHSGHGGGGSGGGGSMEPAAGSSMEPSADWLATAAARGRVEEVRALLEAGALPNAPNSYGRRPIQVMMMGSARVAELLLLHGAEPNCADPATLTRPVHDAAREGFLDTLVVLHRAGARLDVRDAWGRLPVDLAEELGHRDVARYLRAAAGGTRGSNHARIDAAEGPSDIPDGHGHHHHHH
treated cells stained positive [8, 9]: ~30%

B5: p16: human p16 tumor suppressor protein alone, SEQ ID NO: 5 (protein, listed as Homo sapiens)
chain: MEPAAGSSMEPSADWLATAAARGRVEEVRALLEAGALPNAPNSYGRRPIQVMMMGSARVAELLLLHGAEPNCADPATLTRPVHDAAREGFLDTLVVLHRAGARLDVRDAWGRLPVDLAEELGHRDVARYLRAAAGGTRGSNHARIDAAEGPSDIPD
cell penetration [8]: does not
